# In patent US11493476B2, “Charge detector and process for sensing a charged analyte” (Government of the United States of America, as represented …, priority 2016, dated 2022):
# Columns and labels:
# Format in all cases: biochemical
# Cdk5/p25 [1] = biological target: T1, Cdk5/p25 (Homo sapiens, UniProt Q00535); test: Ionic liquid-gated FET measurement of solution pH change during Cdk5/p25-catalysed phosphorylation of histone H1, steady state; conditions: FET measurements, non-linear regression, measured differentially against control without ATP
# Text: With regard to enzyme activity and kinetics, the ultrasensitive FET devices measured activity and kinetics of proline directed kinase Cdk5. Under normal physiological conditions, Cdk5 is tightly regulated by either the p35 or p39 […] proteins. Oxidative stress causes a 10 kDa membrane anchored fragment of p35 to be cleaved, forming the pathological activator p25, resulting in deregulation and delocalization of the complex to the cytosol. […]
# Cdk5 mediated phosphorylation results in the release of a proton during ATP hydrolysis and the transfer of a single phosphate group to either a serine or threonine residue immediately preceding a proline. Here, ionic liquid-gated FETs detected small changes in the solution pH during phosphorylation of the substrate protein, histone H1.
# In each case, Vt,BG was estimated from an ID-VBG plot. To account for instrument drift, each data point in the figure was measured differentially with a control sample that was identical to the measured vials except for the absence of ATP, thereby inhibiting the phosphorylation reaction. […]
# [formula] where k is a constant, [H1] is the concentration of histone H1 and γ is a scaling constant. For the FET measurements in FIG. 54, we estimated k=17.5±1.3 μM from a non-linear regression of the model to the measured data, consistent with previously published activity measurements for the pathological Cdk5/p25 complex. […]
# Cdk5/p25 [2] = biological target: T1, Cdk5/p25; test: Radioactively labeled γ-32P-ATP enzyme activity assay; conditions: radioactively labeled γ-32P-ATP assay
# Cdk5/p25 [3] = biological target: T1, Cdk5/p25; test: FET time-series measurement of enzyme catalyzed phosphorylation (reaction kinetics); conditions: Cdk5/p25 3.8 μM; [H1] 9.1, 12.7, 18.2 μM; independent of the histone H1 concentration
# Text: With reference to FIG. 53, FIG. 54, FIG. 55, and FIG. 56, ionic liquid-gate field-effect transistors (FET) were used for label-free enzyme activity and kinetics measurements. The proline directed kinase Cdk5 catalyzes the phosphorylation of substrate proteins (e.g., histone H1) in the presence of an activator (e.g., p25) and adenosine triphosphate (ATP). The hydrolysis of ATP results in the transfer of a single phosphate group to either a serine (Ser) or threonine (Thr) residue in the substrate protein and the release of a proton into solution, resulting in a change in solution pH. Moreover, ionic liquid-gate FETs measured change in solution pH as a function of the histone H1 concentration ([H1]) inferentially provide activity of Cdk5 under steady-state conditions. FET measurements were in quantitative agreement with a complementary assay that used radioactively labeled 32P-ATP as a reporter of Cdk5 activity. Time-series measurements of enzyme catalyzed phosphorylation as a function of [H1] […] The solid lines depict the reaction kinetics model that describes the time course of phosphorylation, while the dashed lines represent an estimate of the reaction velocity during the first 100 s after a change in the signal was detected.
# The concentration of the Cdk5/p25 complex in these measurements was 3.8 μM (5-fold lower than the quantity used in FIG. 54 and FIG. 55). […]
# T1 sequence (Q00535 whole entry, species assumed, the tested form may be a part): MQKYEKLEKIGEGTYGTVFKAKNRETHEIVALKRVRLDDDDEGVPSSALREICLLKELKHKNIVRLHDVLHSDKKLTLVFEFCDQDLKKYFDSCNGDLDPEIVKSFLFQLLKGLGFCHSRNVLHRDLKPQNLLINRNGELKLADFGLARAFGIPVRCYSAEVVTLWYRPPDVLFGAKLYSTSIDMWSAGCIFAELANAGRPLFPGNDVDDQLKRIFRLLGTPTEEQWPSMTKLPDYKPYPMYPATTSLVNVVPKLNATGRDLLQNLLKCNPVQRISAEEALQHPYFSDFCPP
# T1 sequence (Q15078 99-307 partner limits assumed, species assumed): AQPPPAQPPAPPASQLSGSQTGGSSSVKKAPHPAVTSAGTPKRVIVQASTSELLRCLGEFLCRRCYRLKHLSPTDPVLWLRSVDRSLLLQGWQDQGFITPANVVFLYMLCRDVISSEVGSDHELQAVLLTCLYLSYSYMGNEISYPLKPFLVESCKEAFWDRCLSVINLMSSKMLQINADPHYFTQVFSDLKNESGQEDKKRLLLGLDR
substance,measurement,setting,value
histone H1,k (constant of kinase activity model versus histone H1 concentration),Cdk5/p25 [1],17.5 ± 1.3 µM
same,k (constant of kinase activity model versus histone H1 concentration),Cdk5/p25 [2],12.1 ± 2.3 µM
same,rate constant k1 (first order rate law),Cdk5/p25 [3],0.18±0.02 per min
